For seven molecules, Km, kcat and kcat/Km results are on record in paper PMC4263744, “Single Arginine Mutation in Two Yeast Isocitrate Dehydrogenases: Biochemical Characterization and Functional Implication” (PLoS ONE, 2014).

Data set [1] deals with T1, HcIDH (Homo sapiens, UniProt O75874, R132H).
T1 construct: gene IDH1; synthetic gene, 6xHis-tagged, pET-28b(+), E. coli Rosetta (DE3); 420 residues per subunit
Nature of the data set: NADPH consumption at […] nm. In kind it is biochemical. The note with it: 2 mM MgCl2, 50 mM Tris-HCl pH 8.0, neomorphic reduction to 2-HG, read-out: α-KG / K m.

In data set [2] the target is T1, HcIDH. Put plainly: NADPH formation at […] nm, linear regression. In kind it is biochemical. The note with it: 0.5 mM NADP+, 2 mM MgCl2, 50 mM Tris-HCl pH 8.0, 25°C; apparent; as D-isocitrate; read-out: Isocitrate ^a / K m.
The target in data set [3] is T2, HcIDH (Homo sapiens, UniProt O75874).
T2 construct: gene IDH1; synthetic gene, 6xHis-tagged, pET-28b(+), E. coli Rosetta (DE3); 420 residues per subunit
Nature of the data set: NADPH formation at […] nm, nonlinear regression. In kind it is biochemical. The note with it: 0.5 mM NADP+, 2 mM MgCl2, 50 mM Tris-HCl pH 8.0, 25°C; apparent; as D-isocitrate; read-out: Isocitrate ^a / K m.

Substrate in data set [4]: NC(=O)c1ccc[n+]([C@@H]2O[C@H](COP(=O)(O)OP(=O)(O)OC[C@H]3O[C@@H](n4cnc5c(N)ncnc54)[C@H](OP(=O)(O)O)[C@@H]3O)[C@@H](O)[C@H]2O)c1
Nature of the data set: purified protein. The note with it: isocitrate, MgCl2, 50 mM Tris-HCl pH 8.0, 25°C, varied: cofactor. The class given is biochemical, Saccharomyces cerevisiae.

Substrate in data set [5]: O=C(O)C[C@H](C(=O)O)[C@@H](O)C(=O)O
Nature of the data set: purified protein. In kind it is biochemical, Saccharomyces cerevisiae. The note with it: 0.5 mM NADP+, 2 mM MgCl2, 50 mM Tris-HCl pH 8.0, 25°C, apparent, as D-isocitrate.

Substrate in data set [6]: NC(=O)C1=CN([C@@H]2O[C@H](COP(=O)(O)OP(=O)(O)OC[C@H]3O[C@@H](n4cnc5c(N)ncnc54)[C@H](OP(=O)(O)O)[C@@H]3O)[C@@H](O)[C@H]2O)C=CC1
Nature of the data set: purified protein. The class given is biochemical, Saccharomyces cerevisiae. The note with it: α-KG, 2 mM MgCl2, 50 mM Tris-HCl pH 8.0, neomorphic reduction, varied: cofactor.

Substrate in data set [7]: O=C(O)CCC(=O)C(=O)O
Put plainly: purified protein. The class given is biochemical, Saccharomyces cerevisiae. The note with it: NADPH, 2 mM MgCl2, 50 mM Tris-HCl pH 8.0, neomorphic reduction to 2-HG.

Substrate in data set [8]: NC(=O)c1ccc[n+]([C@@H]2O[C@H](COP(=O)(O)OP(=O)(O)OC[C@H]3O[C@@H](n4cnc5c(N)ncnc54)[C@H](OP(=O)(O)O)[C@@H]3O)[C@@H](O)[C@H]2O)c1
Put plainly: purified protein. The note with it: isocitrate, MgCl2, 50 mM Tris-HCl pH 8.0, 25°C, varied: cofactor. In kind it is biochemical, Yarrowia lipolytica.

Substrate in data set [9]: O=C(O)C[C@H](C(=O)O)[C@@H](O)C(=O)O
Put plainly: purified protein. The class given is biochemical, Yarrowia lipolytica. The note with it: 0.5 mM NADP+, 2 mM MgCl2, 50 mM Tris-HCl pH 8.0, 25°C, apparent, as D-isocitrate.

Substrate in data set [10]: NC(=O)C1=CN([C@@H]2O[C@H](COP(=O)(O)OP(=O)(O)OC[C@H]3O[C@@H](n4cnc5c(N)ncnc54)[C@H](OP(=O)(O)O)[C@@H]3O)[C@@H](O)[C@H]2O)C=CC1
Put plainly: purified protein. In kind it is biochemical, Yarrowia lipolytica. The note with it: α-KG, 2 mM MgCl2, 50 mM Tris-HCl pH 8.0, neomorphic reduction, varied: cofactor.

Substrate in data set [11]: O=C(O)CCC(=O)C(=O)O
Put plainly: purified protein. The class given is biochemical, Yarrowia lipolytica. The note with it: NADPH, 2 mM MgCl2, 50 mM Tris-HCl pH 8.0, neomorphic reduction to 2-HG.

T1 sequence (O75874 whole entry R132H): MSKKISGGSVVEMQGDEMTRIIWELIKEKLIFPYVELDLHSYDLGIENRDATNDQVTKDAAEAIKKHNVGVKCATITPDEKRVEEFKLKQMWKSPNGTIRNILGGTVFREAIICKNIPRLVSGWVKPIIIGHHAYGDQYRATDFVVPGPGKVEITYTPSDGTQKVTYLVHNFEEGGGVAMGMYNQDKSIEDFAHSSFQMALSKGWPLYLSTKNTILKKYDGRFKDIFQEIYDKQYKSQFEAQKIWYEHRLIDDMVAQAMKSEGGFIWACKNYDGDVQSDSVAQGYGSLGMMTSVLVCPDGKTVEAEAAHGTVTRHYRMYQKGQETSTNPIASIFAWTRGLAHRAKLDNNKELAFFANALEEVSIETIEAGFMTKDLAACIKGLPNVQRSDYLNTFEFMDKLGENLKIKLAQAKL
T2 sequence (O75874 whole entry): as the sequence (O75874 whole entry R132H) above, with H132R counted along it

Consider `O=C(O)CCC(=O)C(=O)O` [α-KG], for which, at HcIDH [1], the Km was found to be 157 ± 38.4 µM.

For `O=C(O)C[C@H](C(=O)O)[C@@H](O)C(=O)O` [isocitrate], the figures for the Km on HcIDH [2] and at HcIDH [3] were 2280 ± 195 µM and 5.7 ± 1.4 µM, respectively.

B1: ScIDH1 (Saccharomyces cerevisiae S288C) (protein)
chain: FSKIKVKQPVVELDGDEMTRIIWDKIKKKLILPYLDVDLKYYDLSVESRDATSDKITQDAAEAIKKYGVGIKCATITPDEARVKEFNLHKMWKSPNGTIRNILGGTVFREPIVIPRIPRLVPRWEKPIIIGRHAHGDQYKATDTLIPGPGSLELVYKPSDPTTAQPQTLKVYDYKGSGVAMAMYNTDESIEGFAHSSFKLAIDKKLNLFLSTKNTILKKYDGRFKDIFQEVYEAQYKSKFEQLGIHYEHRLIDDMVAQMIKSKGGFIMALKNYDGDVQSDIVAQGFGSLGLMTSILVTPDGKTFESEAAHGTVTRHYRKYQKGEETSTNSIASIFAWSRGLLKRGELDNTPALCKFANILESATLNTVQQDGIMTKDLALACGNNERSAYVTTEEFLDAVEKRLQKEIKSIE
notes: 6xHis-tagged, pET-28b(+), E. coli Rosetta (DE3); transit peptide absent (forward primer encodes M-FSKIKVK); 419 residues per subunit
Broadly, the kcat is the maximal rate divided by the concentration of active sites. A word on the kcat/Km: it is the second-order rate constant that governs catalysis at low substrate concentration. Regarding B1, the Km in “purified protein [4]” worked out at 17.4 ± 2.01 µM. In the data set “purified protein [5]”, the Km came to 10.5 ± 1.2 µM, the kcat came out at 26.3 ± 0.09 s⁻¹ and the catalytic efficiency (kcat/Km) worked out at 2.5e+06 M⁻¹ s⁻¹.

B2: ScIDH1 (Saccharomyces cerevisiae S288C; R148A) (protein)
chain: FSKIKVKQPVVELDGDEMTRIIWDKIKKKLILPYLDVDLKYYDLSVESRDATSDKITQDAAEAIKKYGVGIKCATITPDEARVKEFNLHKMWKSPNGTIRNILGGTVFREPIVIPRIPRLVPRWEKPIIIGAHAHGDQYKATDTLIPGPGSLELVYKPSDPTTAQPQTLKVYDYKGSGVAMAMYNTDESIEGFAHSSFKLAIDKKLNLFLSTKNTILKKYDGRFKDIFQEVYEAQYKSKFEQLGIHYEHRLIDDMVAQMIKSKGGFIMALKNYDGDVQSDIVAQGFGSLGLMTSILVTPDGKTFESEAAHGTVTRHYRKYQKGEETSTNSIASIFAWSRGLLKRGELDNTPALCKFANILESATLNTVQQDGIMTKDLALACGNNERSAYVTTEEFLDAVEKRLQKEIKSIE
notes: as for B1
On to B2, for which, in the data set “purified protein [5]”, the Km stood at 2263.1 ± 177.3 µM, the kcat was determined as 12.4 ± 5.31 s⁻¹ and the catalytic efficiency (kcat/Km) amounted to 5000 M⁻¹ s⁻¹.

B3: ScIDH1 (Saccharomyces cerevisiae S288C; R148H) (protein)
chain: FSKIKVKQPVVELDGDEMTRIIWDKIKKKLILPYLDVDLKYYDLSVESRDATSDKITQDAAEAIKKYGVGIKCATITPDEARVKEFNLHKMWKSPNGTIRNILGGTVFREPIVIPRIPRLVPRWEKPIIIGHHAHGDQYKATDTLIPGPGSLELVYKPSDPTTAQPQTLKVYDYKGSGVAMAMYNTDESIEGFAHSSFKLAIDKKLNLFLSTKNTILKKYDGRFKDIFQEVYEAQYKSKFEQLGIHYEHRLIDDMVAQMIKSKGGFIMALKNYDGDVQSDIVAQGFGSLGLMTSILVTPDGKTFESEAAHGTVTRHYRKYQKGEETSTNSIASIFAWSRGLLKRGELDNTPALCKFANILESATLNTVQQDGIMTKDLALACGNNERSAYVTTEEFLDAVEKRLQKEIKSIE
notes: as for B1
For B3, the Km in “purified protein [6]” turned out to be 5.9 ± 0.51 µM. Besides, in “purified protein [7]”, the Km turned out to be 30.0 ± 1.76 µM, the kcat was 0.34 ± 0.009 s⁻¹ and the kcat/Km amounted to 11000 M⁻¹ s⁻¹. Moreover, in the data set “purified protein [5]”, the Km came to 24.8 ± 3.2 µM, the catalytic constant (kcat) was 0.27 ± 0.015 s⁻¹ and the kcat/Km turned out to be 11000 M⁻¹ s⁻¹.

B4: YlIDH (Yarrowia lipolytica CLIB122) (protein)
chain: MSTTATRGLSTKIKVKNPIVELDGDEMTRIIWKSIKDKLILPYLDIDLKYYDLGIEYRDQTNDQVTIDAAEAIKKYQVGVKCATITPDEARVKEFGLKKMWLSPNGTIRNILGGTVFREPIVIPAVPRLVPGWKEPIIIGRHAHGDQYKAQDAVIPGAGELTLNFKPANGGDEQVIKVYTYDAPGVAMAMYNTDESITGFAYSSFNLALQKKLPLYMSTKNTILKKYDGRFKDIFQEIYDKEYKDKFDAAGIWYEHRLIDDMVAQMIKSKGGFIMALKNYDGDVQSDIVAQGFGSLGLMTSVLVTPDGKTFESEAAHGTVTRHYRQHQQGKETSTNSIASIFAWTRGLIQRGILDETPEVTKFAEALEKATVDTVDKDGIMTKDLALAGGKTDRSSYVLTEEFIDAVANRLKKDLA
notes: 6xHis-tagged, pET-28b(+), E. coli Rosetta (DE3); forward primer encodes MSTTATR; 422 residues per subunit
Consider B4, for which, in “purified protein [8]”, the Km was 4.1 ± 0.76 µM. In the data set “purified protein [9]”, the Km stood at 11.7 ± 1.1 µM, the kcat turned out to be 26.6 ± 0.87 s⁻¹ and the kcat/Km was 2.3e+06 M⁻¹ s⁻¹.

B5: YlIDH (Yarrowia lipolytica CLIB122; R141H) (protein)
chain: MSTTATRGLSTKIKVKNPIVELDGDEMTRIIWKSIKDKLILPYLDIDLKYYDLGIEYRDQTNDQVTIDAAEAIKKYQVGVKCATITPDEARVKEFGLKKMWLSPNGTIRNILGGTVFREPIVIPAVPRLVPGWKEPIIIGHHAHGDQYKAQDAVIPGAGELTLNFKPANGGDEQVIKVYTYDAPGVAMAMYNTDESITGFAYSSFNLALQKKLPLYMSTKNTILKKYDGRFKDIFQEIYDKEYKDKFDAAGIWYEHRLIDDMVAQMIKSKGGFIMALKNYDGDVQSDIVAQGFGSLGLMTSVLVTPDGKTFESEAAHGTVTRHYRQHQQGKETSTNSIASIFAWTRGLIQRGILDETPEVTKFAEALEKATVDTVDKDGIMTKDLALAGGKTDRSSYVLTEEFIDAVANRLKKDLA
notes: as for B4
On to B5, for which, in “purified protein [10]”, the Km was found to be 3.2 ± 0.43 µM. In the data set “purified protein [11]”, the Km came out at 47.3 ± 4.2 µM, the kcat is 0.43 ± 0.017 s⁻¹ and the catalytic efficiency (kcat/Km) came out at 9000 M⁻¹ s⁻¹. In “purified protein [9]”, the Km came out at 25.6 ± 2.3 µM, the kcat turned out to be 0.14 ± 0.006 s⁻¹ and the kcat/Km came to 5000 M⁻¹ s⁻¹.
